The target of the experiment is ^cchexAFG3L2 (human) (UniProt Q9Y4W6). Description: SEC. A general note: In gel filtration, larger molecules generally elute earlier.

As usually defined, the stoichiometry N is the number of molecules, sites or subunits per partner or assembly.

As for “^cchexAFG3L2 (from UniProt Q9Y4W6 272-797) (enzyme)”, the stoichiometry N is 6.

The values are drawn from publication PMC6475807.
